Article PMC5473807, “Distribution and kinetics of the Kv1.3-blocking peptide HsTX1[R14A] in experimental rats” (Scientific Reports, 2017)
Read-outs that look alike come from different tables or passages of the source.

Test: In vivo biodistribution by organ and tissue extraction
Parameters: species or system male Wistar rats
Details: for tissue uptake dose at 4 h / SUV at 24 h / tissue uptake dose at 24 h / SUV at 48 h / tissue uptake dose at 48 h / SUV at 1 h / tissue uptake dose at 1 h / SUV at 4 h / tissue uptake dose at 5 min / SUV at 5 min / tissue uptake dose: male, Wistar, total radioactivity; for tissue uptake dose at 4 h / SUV at 4 h: 240 min p.i.; for tissue uptake dose at 4 h / SUV at 24 h / tissue uptake dose at 24 h / SUV at 48 h / tissue uptake dose at 48 h / SUV at 1 h / tissue uptake dose at 1 h / SUV at 4 h / tissue uptake dose at 5 min / SUV at 5 min: mean ± SD; for SUV at 24 h / tissue uptake dose at 24 h: 1440 min p.i.; for SUV at 48 h / tissue uptake dose at 48 h: 2880 min p.i.; for SUV at 1 h / tissue uptake dose at 1 h: 60 min p.i.; for tissue uptake dose at 5 min / SUV at 5 min: 5 min p.i.; for tissue uptake dose: whole body, end of observation (Fig. 7c), time not given, mean ± SEM, read-out: remaining activity in the body; for AUC Kidney / AUC Liver: calculated between 1 and 48 h; for t1/2 Blood / t1/2 Kidney / t1/2 Liver: calculated from 24 to 48 h
Procedure: The present study includes data obtained from a total of 50 animals. Four animals (body weight 227 ± 10 g) for each time point were injected intravenously into a tail vein or subcutaneously with approximately 0.3 MBq ([…]) [^64Cu]Cu-NOTA-HsTX1[R14A] conjugate in 0.5 mL electrolyte solution E-153 (Serumwerk Bernburg, Germany). Animals were euthanised at 5, 60, 240, 1440 and 2880 min post-injection. Blood and the major organs were collected, weighed, and counted in a cross-calibrated γ-counter (Isomed 1000, Isomed GmbH, Dresden) and Wallac WIZARD Automatic Gamma Counter (PerkinElmer, Germany). The radioactivity of the tissue samples was decay-corrected and calibrated by comparing the counts in tissue with the counts in aliquots of the injected radiotracer that had been measured in the γ-counter at the same time. The activity in the selected organs was expressed as percent-injected dose per organ (% ID) and the activity concentration in tissues and organs as standardised uptake value (SUV). Values are quoted as mean ± standard error of mean (SEM) for each group of four animals.

[1] = testes, iv, 0.3 MBq, rat, i.v., n=4, read-out: Testes activity amount
[2] = testes, sc, 0.3 MBq, rat, s.c., n=4, read-out: Testes SUV
[3] = testes, sc, 0.3 MBq, rat, s.c., n=4, read-out: Testes activity amount
[4] = thymus, iv, 0.3 MBq, rat, i.v., n=4, read-out: Thymus activity amount
[5] = thymus, iv, 0.3 MBq, rat, i.v., n=8, read-out: Thymus activity amount
[6] = thymus, iv, rat, i.v., n=4, read-out: Thymus SUV
[7] = thymus, iv, rat, i.v., n=8, read-out: Thymus SUV
[8] = thymus, sc, 0.3 MBq, rat, s.c., n=4, read-out: Thymus activity amount
[9] = thymus, sc, rat, s.c., n=4, read-out: Thymus SUV
[10] = thyroid, iv, 0.3 MBq, rat, i.v., n=4, read-out: Thyroid activity amount
[11] = thyroid, iv, 0.3 MBq, rat, i.v., n=8, read-out: Thyroid activity amount
[12] = thyroid, sc, 0.3 MBq, rat, s.c., n=4, read-out: Thyroid activity amount
[13] = white adipose tissue, iv, 0.3 MBq, rat, i.v., n=4, read-out: WAT (white adipose tissue) SUV
[14] = white adipose tissue, iv, 0.3 MBq, rat, i.v., n=8, read-out: WAT (white adipose tissue) SUV
[15] = white adipose tissue, sc, 0.3 MBq, rat, s.c., n=4, read-out: WAT (white adipose tissue) SUV
[16] = whole blood, iv, 0.3 MBq, rat, i.v., n=4, read-out: Blood SUV

CSCC[C@@H]1NC(=O)[C@@H]2CSSC[C@H](NC(=O)[C@H](CO)NC(=O)[C@H](C)NC(=O)COCCOCCNC(=O)CN3CCN(CC(=O)O)CCN(CC(=O)O)CC3)C(=O)N[C@@H](CCCNC(=N)N)C(=O)N[C@@H]([C@@H](C)O)C(=O)N3CCC[C@H]3C(=O)N[C@@H](CCCCN)C(=O)N[C@@H](CC(=O)O)C(=O)N[C@H]3CSSC[C@H](NC(=O)[C@H](CCCCN)NC(=O)[C@H](CCCNC(=N)N)NC(=O)[C@H](CC(N)=O)NC1=O)C(=O)N[C@@H](CCCCN)C(=O)N[C@H]1CSSC[C@H](NC(=O)[C@@H]4CCCN4C(=O)[C@H](CC(=O)O)NC(=O)[C@H](C)NC3=O)C(=O)N[C@@H](C)C(=O)N[C@@H](CCCCN)C(=O)N[C@@H](CCC(=O)O)C(=O)N[C@@H]([C@@H](C)O)C(=O)NCC(=O)N[C@@H](CSSC[C@@H](C(N)=O)NC(=O)[C@H](CCCNC(=N)N)NC(=O)[C@H](CC(N)=O)NC1=O)C(=O)N1CCC[C@H]1C(=O)N[C@@H](Cc1ccc(O)cc1)C(=O)NCC(=O)N[C@@H](CCCCN)C(=O)N2 [[^64Cu]Cu-NOTA-HsTX1[R14A], metal not drawn]
tissue uptake dose at 4 h [1]: 0.21 ± 0.01 %ID | SUV at 24 h (testes, iv, 0.3 MBq, rat, i.v., n=8, read-out: Testes SUV): 0.87 ± 0.34 SUV | tissue uptake dose at 24 h (testes, iv, 0.3 MBq, rat, i.v., n=8, read-out: Testes activity amount): 1.05 ± 0.13 %ID | SUV at 48 h (testes, iv, 0.3 MBq, rat, i.v., n=4, read-out: Testes SUV): 0.5 ± 0.02 SUV | tissue uptake dose at 48 h [1]: 0.76 ± 0.02 %ID | SUV at 1 h [2]: 0.15 ± 0.01 SUV | tissue uptake dose at 1 h [3]: 0.21 ± 0.01 %ID | SUV at 4 h [2]: 0.12 ± 0.01 SUV | tissue uptake dose at 4 h [3]: 0.2 ± 0.03 %ID | SUV at 24 h [2]: 0.54 ± 0.02 SUV | tissue uptake dose at 24 h [3]: 0.92 ± 0.06 %ID | SUV at 48 h [2]: 0.44 ± 0.01 SUV | tissue uptake dose at 48 h [3]: 0.63 ± 0.06 %ID | tissue uptake dose at 5 min [4]: 0.37 ± 0.07 %ID | tissue uptake dose at 1 h [5]: 0.37 ± 0.08 %ID | tissue uptake dose at 4 h [4]: 0.37 ± 0.04 %ID | tissue uptake dose at 24 h [5]: 0.21 ± 0.03 %ID | tissue uptake dose at 48 h [4]: 0.17 ± 0.02 %ID | SUV at 5 min [6]: 1.51 ± 0.08 SUV | SUV at 1 h [7]: 1.33 ± 0.19 SUV | SUV at 4 h [6]: 1.07 ± 0.02 SUV | SUV at 24 h [7]: 0.74 ± 0.15 SUV | SUV at 48 h [6]: 0.53 ± 0.02 SUV | tissue uptake dose at 1 h [8]: 0.46 ± 0.01 %ID | tissue uptake dose at 4 h [8]: 0.43 ± 0.04 %ID | tissue uptake dose at 24 h [8]: 0.22 ± 0.01 %ID | tissue uptake dose at 48 h [8]: 0.16 ± 0.02 %ID | SUV at 1 h [9]: 1.15 ± 0.03 SUV | SUV at 4 h [9]: 1.07 ± 0.11 SUV | SUV at 24 h [9]: 0.63 ± 0.05 SUV | SUV at 48 h [9]: 0.46 ± 0.05 SUV | tissue uptake dose at 5 min [10]: 0.07 %ID | tissue uptake dose at 1 h [11]: 0.11 ± 0.02 %ID | tissue uptake dose at 4 h [10]: 0.12 ± 0.01 %ID | tissue uptake dose at 24 h [11]: 0.08 ± 0.01 %ID | tissue uptake dose at 48 h [10]: 0.07 ± 0.02 %ID | tissue uptake dose at 1 h [12]: 0.13 ± 0.02 %ID | tissue uptake dose at 4 h [12]: 0.11 ± 0.02 %ID | tissue uptake dose at 24 h [12]: 0.09 ± 0.05 %ID | tissue uptake dose at 48 h [12]: 0.03 ± 0.02 %ID | SUV at 5 min [13]: 0.28 ± 0.06 SUV | SUV at 1 h [14]: 0.19 ± 0.07 SUV | SUV at 4 h [13]: 0.15 SUV | SUV at 24 h [14]: 0.19 ± 0.09 SUV | SUV at 48 h [13]: 0.34 ± 0.08 SUV | SUV at 1 h [15]: 0.25 ± 0.05 SUV | SUV at 4 h [15]: 0.17 ± 0.05 SUV | SUV at 24 h [15]: 0.22 ± 0.01 SUV | SUV at 48 h [15]: 0.17 ± 0.08 SUV | SUV at 4 h [16]: 0.51 ± 0.02 SUV | SUV at 24 h (whole blood, iv, 0.3 MBq, rat, i.v., n=8, read-out: Blood SUV): 0.71 ± 0.16 SUV | SUV at 48 h [16]: 0.38 ± 0.02 SUV | SUV at 1 h (whole blood, sc, 0.3 MBq, rat, s.c., n=4, read-out: Blood SUV): 0.65 ± 0.11 SUV | tissue uptake dose (iv, 0.3 MBq, rat, i.v., 8 animals): 48 ± 3 %ID | tissue uptake dose (sc, 0.3 MBq, rat, s.c., 4 animals): 45 ± 3 %ID | brain uptake (rat): negligible | AUC Kidney (rat, i.v., n=8): 1417 ± 102 SUV x h | AUC Liver (rat, i.v., n=8): 92,7 ± 11,0 SUV x h | t1/2 Blood (rat, i.v., n=8): 49,5 h | t1/2 Kidney (rat, i.v., n=8): 14,7 h | t1/2 Liver (rat, i.v., n=8): 39,5 h | Cmax Kidney (rat, i.v., n=8): 74,8 ± 12,8 SUV | Cmax Liver (rat, i.v., n=8): 2,50 ± 0,57 SUV | Peak time Blood (rat, i.v., n=8): 1 h | Peak time Kidney (rat, i.v., n=8): 1 h | Peak time Liver (rat, i.v., n=8): 24 h | AUC Kidney (rat, s.c., n=4): 1285 ± 57 SUV x h | AUC Liver (rat, s.c., n=4): 87,8 ± 9,5 SUV x h | t1/2 Blood (rat, s.c., n=4): 46,4 h | t1/2 Kidney (rat, s.c., n=4): 18,9 h | t1/2 Liver (rat, s.c., n=4): 35,9 h | Cmax Blood (rat, s.c., n=4): 0,65 ± 0,11 SUV | Cmax Kidney (rat, s.c., n=4): 70,2 ± 4,1 SUV | Cmax Liver (rat, s.c., n=4): 2,23 ± 0,32 SUV | Peak time Blood (rat, s.c., n=4): 1 h | Peak time Kidney (rat, s.c., n=4): 4 h | Peak time Liver (rat, s.c., n=4): 24 h | biological half-life of the total activity in the rat body (s.c.): 42.0 h
